Bridges are numbered along the chain shown (N, C = ends). Where no end group is shown, it is not given here.
T1: VEGF-A truncated nascent chain (amino-terminal 52 amino acid residues of human VEGF-A plus six histidine … (human))
T1 construct: Translated in vitro in wheat germ lysate without stop codon; also called short VEGF-A nascent chains; bait polypeptide
T1 chain: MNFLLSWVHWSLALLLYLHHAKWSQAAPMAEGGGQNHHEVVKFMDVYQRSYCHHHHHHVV

T2: VEGF-A truncated nascent chain (52 amino-terminal residues of VEGF-A plus His6 and two valines) translated in … (human, ε-labelled biotinylated lysine incorporated from Transcend tRNA (positions not stated))
T2 construct: in one setting the ribosomes were dissociated with RNAse ONE before elution; also called VEGF-A nascent chains; VEGF-A-translating ribosomes
T2 chain: T1 chain

B1: SPRPSLS (SEQ ID NO:15), displayed on M13 phage (peptide)
chain: CSPRPSLSC
modifications: disulfide 1-9
notes: From the Ph.D.-C7C library; on phage; not shown: M13 pIII minor coat protein, peptide at its amino-terminus
B2: LTRPSPS (SEQ ID NO:10), displayed on M13 phage (peptide)
chain: CLTRPSPSC
modifications: disulfide 1-9; not fully specified
notes: as for B1
B3: SVSGSPS (SEQ ID NO:6), displayed on M13 phage (peptide)
chain: CSVSGSPSC
modifications: disulfide 1-9; also: displayed on M13 phage, fused to pIII
notes: as for B1
B4: SGSSPWH (SEQ ID NO:7), displayed on M13 phage (peptide)
chain: CSGSSPWHC
modifications: disulfide 1-9
notes: as for B1
B5: SPSLLPA (SEQ ID NO:11), displayed on M13 phage (peptide)
chain: CSPSLLPAC
modifications: disulfide 1-9
notes: as for B1
B6: NLSSSWI (SEQ ID NO:9), displayed on M13 phage (peptide)
chain: CNLSSSWIC
modifications: disulfide 1-9
notes: as for B1
B7: HPSSTHQ (SEQ ID NO:8), displayed on M13 phage (peptide)
chain: CHPSSTHQC
modifications: disulfide 1-9; not fully specified
notes: as for B1
B8: SSPLLGR (SEQ ID NO:12), displayed on M13 phage (peptide)
chain: CSSPLLGRC
modifications: disulfide 1-9
notes: as for B1
B9: FLFRLF (SEQ ID NO:2), displayed on M13 phage (peptide)
chain: CFLFRLFC
modifications: disulfide 1-8; not fully specified
notes: From the Ph.D.-C7C library; on phage; A hexapeptide; not shown: M13 pIII minor coat protein, peptide at its amino-terminus
B10: PVAPSTH (SEQ ID NO:13), displayed on M13 phage (peptide)
chain: CPVAPSTHC
modifications: disulfide 1-9
notes: as for B1
B11: PMTSPPS (SEQ ID NO:3), displayed on M13 phage (peptide)
chain: CPMTSPPSC
modifications: disulfide 1-9
notes: as for B1
B12: LGALSHT (SEQ ID NO:14), displayed on M13 phage (peptide)
chain: CLGALSHTC
modifications: disulfide 1-9; not fully specified
notes: as for B1
B13: NPISLHL (SEQ ID NO:4), displayed on M13 phage (peptide)
chain: CNPISLHLC
modifications: disulfide 1-9
notes: as for B1
B14: TASSVKL (SEQ ID NO:5), displayed on M13 phage (peptide)
chain: CTASSVKLC
modifications: disulfide 1-9; also: displayed on M13 phage, fused to pIII
notes: as for B1
B15: PLHARLP (SEQ ID NO:1), displayed on M13 phage (peptide)
chain: CPLHARLPC
modifications: disulfide 1-9
notes: as for B1
B16: SYPLRPP (SEQ ID NO: 23), displayed on M13 phage (peptide)
chain: CSYPLRPPC
modifications: disulfide 1-9; also: displayed on M13 phage, fused to pIII
notes: as for B1
B17: LPRPLHS (SEQ ID NO: 42), displayed on M13 phage (peptide)
chain: CLPRPLHSC
modifications: disulfide 1-9; not fully specified
notes: as for B1
B18: EIRTPSV (SEQ ID NO: 21), displayed on M13 phage (peptide)
chain: CEIRTPSVC
modifications: disulfide 1-9; not fully specified
notes: as for B1
B19: HPMFPLS (SEQ ID NO: 28), displayed on M13 phage (peptide)
chain: CHPMFPLSC
modifications: disulfide 1-9; not fully specified
notes: as for B1
B20: EPASSRH (SEQ ID NO: 37), displayed on M13 phage (peptide)
chain: CEPASSRHC
modifications: disulfide 1-9; not fully specified
notes: as for B1
B21: SRSALES (SEQ ID NO: 46), displayed on M13 phage (peptide)
chain: CSRSALESC
modifications: disulfide 1-9
notes: as for B1
B22: EASSSRA (SEQ ID NO: 45), displayed on M13 phage (peptide)
chain: CEASSSRAC
modifications: disulfide 1-9; not fully specified
notes: as for B1
B23: DYPWPLP (SEQ ID NO: 40), displayed on M13 phage (peptide)
chain: CDYPWPLPC
modifications: disulfide 1-9; not fully specified
notes: as for B1
B24: SPSTSSR (SEQ ID NO: 34), displayed on M13 phage (peptide)
chain: CSPSTSSRC
modifications: disulfide 1-9
notes: as for B1
B25: TLSHTRT (SEQ ID NO: 35), displayed on M13 phage (peptide)
chain: CTLSHTRTC
modifications: disulfide 1-9; also: displayed on M13 phage, fused to pIII
notes: as for B1
B26: LPPLQRL (SEQ ID NO: 19), displayed on M13 phage (peptide)
chain: CLPPLQRLC
modifications: disulfide 1-9; not fully specified
notes: as for B1
B27: LTLPNRT (SEQ ID NO: 17), displayed on M13 phage (peptide)
chain: CLTLPNRTC
modifications: disulfide 1-9; not fully specified
notes: as for B1
B28: HALSSRT (SEQ ID NO: 32), displayed on M13 phage (peptide)
chain: CHALSSRTC
modifications: disulfide 1-9; not fully specified
notes: as for B1
B29: PHTRGFM (SEQ ID NO: 33), displayed on M13 phage (peptide)
chain: CPHTRGFMC
modifications: disulfide 1-9
notes: as for B1
B30: FPATAAS (SEQ ID NO: 36), displayed on M13 phage (peptide)
chain: CFPATAASC
modifications: disulfide 1-9; not fully specified
notes: as for B1
B31: VSGSSPQ (SEQ ID NO: 43), displayed on M13 phage (peptide)
chain: CVSGSSPQC
modifications: disulfide 1-9; also: displayed on M13 phage, fused to pIII
notes: as for B1
B32: NASRTTL (SEQ ID NO: 48), displayed on M13 phage (peptide)
chain: CNASRTTLC
modifications: disulfide 1-9; not fully specified
notes: as for B1
B33: SLNSDLF (SEQ ID NO: 26), displayed on M13 phage (peptide)
chain: CSLNSDLFC
modifications: disulfide 1-9
notes: as for B1
B34: HAWTFNS (SEQ ID NO: 22), displayed on M13 phage (peptide)
chain: CHAWTFNSC
modifications: disulfide 1-9; not fully specified
notes: as for B1
B35: SPHLIPS (SEQ ID NO: 27), displayed on M13 phage (peptide)
chain: CSPHLIPSC
modifications: disulfide 1-9
notes: as for B1
B36: PPPFLPL (SEQ ID NO: 20), displayed on M13 phage (peptide)
chain: CPPPFLPLC
modifications: disulfide 1-9
notes: as for B1
B37: LPVSSSS (SEQ ID NO: 24), displayed on M13 phage (peptide)
chain: CLPVSSSSC
modifications: disulfide 1-9; not fully specified
notes: as for B1
B38: HPMFWPI (SEQ ID NO: 29), displayed on M13 phage (peptide)
chain: CHPMFWPIC
modifications: disulfide 1-9; not fully specified
notes: as for B1
B39: HALPAPD (SEQ ID NO: 49), displayed on M13 phage (peptide)
chain: CHALPAPDC
modifications: disulfide 1-9; not fully specified
notes: as for B1
B40: PSLFPSM (SEQ ID NO: 44), displayed on M13 phage (peptide)
chain: CPSLFPSMC
modifications: disulfide 1-9
notes: as for B1
B41: PSALAFY (SEQ ID NO: 47), displayed on M13 phage (peptide)
chain: CPSALAFYC
modifications: disulfide 1-9
notes: as for B1
B42: PANFGPS (SEQ ID NO: 16), displayed on M13 phage (peptide)
chain: CPANFGPSC
modifications: disulfide 1-9
notes: as for B1
B43: AFPGMKA (SEQ ID NO: 18), displayed on M13 phage (peptide)
chain: CAFPGMKAC
modifications: disulfide 1-9; not fully specified
notes: as for B1
B44: WASQAHP (SEQ ID NO: 30), displayed on M13 phage (peptide)
chain: CWASQAHPC
modifications: disulfide 1-9; also: displayed on M13 phage, fused to pIII
notes: as for B1
B45: LALSAAR (SEQ ID NO: 25), displayed on M13 phage (peptide)
chain: CLALSAARC
modifications: disulfide 1-9; not fully specified
notes: as for B1
B46: SSTLHPS (SEQ ID NO: 31), displayed on M13 phage (peptide)
chain: CSSTLHPSC
modifications: disulfide 1-9; also: displayed on M13 phage, fused to pIII
notes: as for B1
B47: PLHPPQP (SEQ ID NO: 41), displayed on M13 phage (peptide)
chain: CPLHPPQPC
modifications: disulfide 1-9
notes: as for B1

Biological target: T1, VEGF-A truncated nascent chain …
Assay: phage panning, released His-tagged nascent chain on Ni-NTA beads, DTT elution; selection only

Does B1 bind?
Result: binds

Does B2 bind?
Result: binds

Does B3 bind?
Result: binds

Does B4 bind?
Result: binds

Does B5 bind?
Result: binds

Does B6 bind?
Result: binds

Does B7 bind?
Result: binds

Does B8 bind?
Result: binds

Does B9 bind?
Result: binds

Does B10 bind?
Result: binds

Does B11 bind?
Result: binds

Does B12 bind?
Result: binds

Does B13 bind?
Result: binds

Does B14 bind?
Result: binds

Biological target: T1, VEGF-A truncated nascent chain …
Assay: phage panning by co-sedimentation with ribosome-bound nascent chain, with subtraction on non-translating ribosomes; selection only

Does B15 bind?
Result: binds

Biological target: T2, VEGF-A truncated nascent chain (52 …)
Assay: phage panning, biotinylated ribosome-bound nascent chain in streptavidin wells; selection only

Does B16 bind?
Result: binds

Does B17 bind?
Result: binds

Does B18 bind?
Result: binds

Does B19 bind?
Result: binds

Does B20 bind?
Result: binds

Does B21 bind?
Result: binds

Does B22 bind?
Result: binds

Does B23 bind?
Result: binds

Does B24 bind?
Result: binds

Does B25 bind?
Result: binds

Does B26 bind?
Result: binds

Does B27 bind?
Result: binds

Does B28 bind?
Result: binds

Does B29 bind?
Result: binds

Does B30 bind?
Result: binds

Does B31 bind?
Result: binds

Does B32 bind?
Result: binds

Does B33 bind?
Result: binds

Does B34 bind?
Result: binds

Does B35 bind?
Result: binds

Does B36 bind?
Result: binds

Does B37 bind?
Result: binds

Does B38 bind?
Result: binds

Does B39 bind?
Result: binds

Does B40 bind?
Result: binds

Does B41 bind?
Result: binds

Does B42 bind?
Result: binds

Does B43 bind?
Result: binds

Does B44 bind?
Result: binds

Does B45 bind?
Result: binds

Does B46 bind?
Result: binds

Does B47 bind?
Result: binds

— patent EP2345737A1 (Harant, Hanna, dated 2011)
